Source: FireProtDB (doi:10.1111/j.1432-1033.1993.tb17904.x)
“And” between values parts separate entries of the source, which are not always exact repeats. Equal entries are not always repeated.

Details: Carica papaya, Thermal, DSC, glycine-HCl 5 mM, reversible: yes, whole UniProt chain shown

B1: Papain wild type, P00784 (protein)
chain: MAMIPSISKLLFVAICLFVYMGLSFGDFSIVGYSQNDLTSTERLIQLFESWMLKHNKIYKNIDEKIYRFEIFKDNLKYIDETNKKNNSYWLGLNVFADMSNDEFKEKYTGSIAGNYTTTELSYEEVLNDGDVNIPEYVDWRQKGAVTPVKNQGSCGSCWAFSAVVTIEGIIKIRTGNLNEYSEQELLDCDRRSYGCNGGYPWSALQLVAQYGIHYRNTYPYEGVQRYCRSREKGPYAAKTDGVRQVQPYNEGALLYSIANQPVSVVLEAAGKDFQLYRGGIFVGPCGNKVDHAVAAVGYGPNYILIKNSWGTGWGENGYIRIKRGTGNSYGVCGLYTSSFYPVKN
unfolding enthalpy (calorimetric) (pH 1.9): 119 kcal/mol and 98.7 kcal/mol | unfolding enthalpy (van 't Hoff) (pH 1.9): 65.2 kcal/mol and 50.6 kcal/mol | unfolding enthalpy (calorimetric) (pH 2.4): 133 kcal/mol and 143 kcal/mol and 111 kcal/mol | unfolding enthalpy (van 't Hoff) (pH 2.4): 72.6 kcal/mol and 82.3 kcal/mol and 62.9 kcal/mol | Tm (pH 2.9): 69.5 °C and 70.4 °C | unfolding enthalpy (calorimetric) (pH 2.9): 154 kcal/mol and 162 kcal/mol | unfolding enthalpy (van 't Hoff) (pH 2.9): 79.6 kcal/mol and 89.2 kcal/mol | unfolding enthalpy (calorimetric) (pH 3.5): 206 kcal/mol and 226 kcal/mol and 189 kcal/mol | unfolding enthalpy (van 't Hoff) (pH 3.5): 113 kcal/mol and 118 kcal/mol and 98.9 kcal/mol | unfolding enthalpy (calorimetric) (pH 3.9): 229 kcal/mol and 232 kcal/mol and 198 kcal/mol | unfolding enthalpy (van 't Hoff) (pH 3.9): 132 kcal/mol and 130 kcal/mol and 114 kcal/mol
